Literature values as cited in paper PMC8771847.

Biological target: Piezo1 (Mus musculus) (UniProt E2JF22)
UniProt E2JF22, sequence (E2JF22 whole entry): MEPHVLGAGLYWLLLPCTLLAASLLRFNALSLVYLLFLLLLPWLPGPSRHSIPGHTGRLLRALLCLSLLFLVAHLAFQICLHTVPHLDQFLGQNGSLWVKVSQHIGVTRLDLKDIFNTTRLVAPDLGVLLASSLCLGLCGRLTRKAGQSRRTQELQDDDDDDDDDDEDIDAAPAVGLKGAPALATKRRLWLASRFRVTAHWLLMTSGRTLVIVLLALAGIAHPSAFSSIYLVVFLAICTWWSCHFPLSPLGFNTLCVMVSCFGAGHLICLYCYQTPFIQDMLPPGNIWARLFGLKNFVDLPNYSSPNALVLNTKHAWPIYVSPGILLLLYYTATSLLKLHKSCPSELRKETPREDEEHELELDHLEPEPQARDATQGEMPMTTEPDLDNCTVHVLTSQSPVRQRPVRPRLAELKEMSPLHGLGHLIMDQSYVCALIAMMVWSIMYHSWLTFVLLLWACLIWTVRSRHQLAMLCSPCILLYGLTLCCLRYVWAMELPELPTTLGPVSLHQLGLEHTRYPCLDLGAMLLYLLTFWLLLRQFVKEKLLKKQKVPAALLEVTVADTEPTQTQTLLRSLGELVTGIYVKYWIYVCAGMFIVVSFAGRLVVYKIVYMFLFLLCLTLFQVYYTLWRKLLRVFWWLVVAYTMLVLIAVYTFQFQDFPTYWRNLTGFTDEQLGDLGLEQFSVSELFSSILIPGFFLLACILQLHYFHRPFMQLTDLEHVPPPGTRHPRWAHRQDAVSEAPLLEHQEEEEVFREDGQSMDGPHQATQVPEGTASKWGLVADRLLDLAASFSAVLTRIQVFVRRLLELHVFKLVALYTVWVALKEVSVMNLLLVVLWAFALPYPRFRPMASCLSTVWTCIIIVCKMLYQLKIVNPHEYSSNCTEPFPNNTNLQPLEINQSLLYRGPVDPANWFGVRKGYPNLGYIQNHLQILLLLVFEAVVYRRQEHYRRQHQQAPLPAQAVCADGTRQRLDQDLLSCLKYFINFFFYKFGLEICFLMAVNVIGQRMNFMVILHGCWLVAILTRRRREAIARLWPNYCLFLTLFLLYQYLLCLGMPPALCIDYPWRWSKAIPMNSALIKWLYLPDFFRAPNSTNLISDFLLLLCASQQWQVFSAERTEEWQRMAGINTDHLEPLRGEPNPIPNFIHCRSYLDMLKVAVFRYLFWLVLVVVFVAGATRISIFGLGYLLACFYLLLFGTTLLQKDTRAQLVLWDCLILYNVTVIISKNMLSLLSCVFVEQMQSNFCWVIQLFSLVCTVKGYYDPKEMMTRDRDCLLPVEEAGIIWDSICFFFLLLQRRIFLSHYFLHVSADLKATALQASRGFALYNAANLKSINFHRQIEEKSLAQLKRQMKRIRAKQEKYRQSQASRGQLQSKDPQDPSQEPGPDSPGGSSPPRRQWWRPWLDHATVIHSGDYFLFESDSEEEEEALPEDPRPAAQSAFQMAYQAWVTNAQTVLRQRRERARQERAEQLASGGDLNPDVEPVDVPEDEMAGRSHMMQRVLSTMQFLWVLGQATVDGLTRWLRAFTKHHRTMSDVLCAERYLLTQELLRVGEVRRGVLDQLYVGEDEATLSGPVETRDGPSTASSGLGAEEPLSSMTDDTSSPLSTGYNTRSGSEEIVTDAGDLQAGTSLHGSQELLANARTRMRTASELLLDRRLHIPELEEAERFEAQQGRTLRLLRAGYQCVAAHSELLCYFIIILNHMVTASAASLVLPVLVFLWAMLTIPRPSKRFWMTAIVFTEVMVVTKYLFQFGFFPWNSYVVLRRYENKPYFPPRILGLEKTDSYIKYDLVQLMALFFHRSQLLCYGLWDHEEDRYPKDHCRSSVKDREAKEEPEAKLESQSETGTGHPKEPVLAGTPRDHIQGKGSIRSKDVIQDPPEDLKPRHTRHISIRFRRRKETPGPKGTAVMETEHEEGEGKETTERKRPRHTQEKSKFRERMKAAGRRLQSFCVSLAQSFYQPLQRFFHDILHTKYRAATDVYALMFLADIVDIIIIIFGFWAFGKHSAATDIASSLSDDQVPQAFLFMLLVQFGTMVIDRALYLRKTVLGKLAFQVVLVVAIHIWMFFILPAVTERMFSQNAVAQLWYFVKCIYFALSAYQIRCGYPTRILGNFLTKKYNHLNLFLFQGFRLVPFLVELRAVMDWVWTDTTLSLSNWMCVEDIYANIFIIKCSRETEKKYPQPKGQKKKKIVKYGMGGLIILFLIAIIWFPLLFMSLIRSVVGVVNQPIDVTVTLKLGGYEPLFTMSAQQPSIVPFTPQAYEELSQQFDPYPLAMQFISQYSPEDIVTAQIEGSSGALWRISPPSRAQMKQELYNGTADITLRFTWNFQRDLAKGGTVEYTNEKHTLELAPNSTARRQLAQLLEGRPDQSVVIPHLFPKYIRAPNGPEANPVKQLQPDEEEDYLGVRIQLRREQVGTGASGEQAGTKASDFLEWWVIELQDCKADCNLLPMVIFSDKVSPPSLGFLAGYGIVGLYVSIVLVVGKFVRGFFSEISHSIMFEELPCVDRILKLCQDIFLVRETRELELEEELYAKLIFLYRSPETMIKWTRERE

Substance: GsMTx-4 (from UniProt Q7YT39)
- Kd: 2 µM
